Results: the RNAGym collection of RNA variant scans (doi:10.1073/pnas.2313332121)
This sample holds only a part of the variants without activity.

B1: TPR 5TU (parent)
chain: GGAUCUUCUCGAUCUAACAAAAAAGACAAAUCUGCCACAAAGCUUGAGAGCAUCUUCGGAUGCAGAGGCGGCAGCCUUCGGUGGCGCGAUAGCGCCAACGUUCUCAACUAUGACACGCAAAACGCGUGCUCCGUUGAAUGGAGUUUAUCAUG

Variants of: B1
Experiment: polymerase ribozyme fitness, log enrichment relative to wild type (log ratio); higher = more active; in vitro selection for triplet polymerase activity
Outline: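 To select mutant libraries of each subunit of a heterodimeric triplet polymerase ribozyme, built by PCR and transcribed, each was annealed with a biotinylated primer, partner subunit and triplets, then incubated frozen at −7 °C. Extended constructs were gel-excised, captured on streptavidin beads and amplified by RT-PCR, in one round carried out in triplicate. Illumina sequencing of input and output libraries kept genotypes with ≥10 input reads and ≥1 read per output. Fitness is the base-2 logarithm of genotype enrichment relative to wild-type enrichment, from inverse-variance-weighted replicate averages.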

Variant | polymerase ribozyme fitness (log ratio)
GGAUCUUCUCGGUCUAACAAAAAAGACAAAUCUGCCACAAAGCUUGAGAGCAUCUUCAGAUGCAGAGGCGGCAGCCUUCGGUGGCGCGAUUGCGCCAACGUUCUCAACGAUGACACGCAAAACGCGUGCUCCGUUGAAUGGAGUUUAUCAUG | -3.78
GGAUCUUCUCGAUCUAACAAAAAAGACAAAUCUGCCACAAAGCUUGAGAGCAUAUUCGGAUGCAGAGGCGGCAGCCUUUGGUGGCGCGAUAGAGCCAACGUUCUCAACUAUGUCACGCAAAACGCGGGCUCCGUUGAAUGGAGUUUAUCAUG | ≤ -4.2
GGAUCUUCUCGAUCUAACAAAAAAGACAAAUCUGCCACAAAGCUUCAGAGCAUCUUAGGAUGCAGUGGCGGCAGCCUUCGGUGGCGCGAUAGCGCCAACGUUCUCAACUAUGCCACGCAAAACGCGUGCUCCGUUGAAUGGAGUUUAUCAUG | ≤ -4.2
GGAUCUUCUCGAUCUAACAAAAAAGACAAAUCUGCCACCAAGCUUGAGAGCAACUUCGGAUCCAGAGGCGGCAGCCUUCGGUGGCGCGAUAGCGCCAACGUUCUCAACUAUGACACGCAAAACGCGUGCUCCGUUGAAUGGAGAUUAUCAUG | ≤ -4.2
GGAUCUUCUCGAUCUAACAAAAAAGACAAACCUGGUACAAAGCUUGAGAGGAUCUUCGGAUGCAGAGGCGGCAGCCUUCGGUGGCGCGAUACCGCCAACGUUCUCAACAAUGACACGCAAAACGCGUGCUCCGUUGAAUGGAGUUUAUCAAG | ≤ -4.2
GGAUCUUCUCGAUCUCACAAAAAAGACAAAUCUGCCACAAAGCUUGAGAGCUUCUUCGGAUGCAGAGGCGGCAGCCUUCGGUGGGGCGAUAGCGCCAACGUUCUCAACUAUGACACGCAAAGCCCGUGCUCCGUUGAAUGGAGUUUAUCAUG | ≤ -4.2
GGAUCUUCUCGAUCUCACAAAAAAGACAAAUCUGCCACAUAGCUUGAGAGCAUCUUCGGAUGCAGAGGCGGCAGCCUUCGGUGGCGCGAUAGAGCCAACGUUCUCAACUAUGACACGCAAAGCGCGUGCUCCGUUGAAUGCAGUUUAUCAUG | ≤ -4.2
GGAUCUUCUCGAUCUAACAAAAAAGACAAAUCUGCCAUAAAGCUUGAGAGCAUCUUCGGAUGCAGAGGCGGCAGCCUUCGGUGGCGCGAGAGCGACAACGUUCUCAACUAUGACACGCAAAACGCGUGCUCCGUUGAAUGGAGUUUAUCAUG | ≤ -4.2
GGAUCUUCUCGAUCUAACAAAAAAGACACAUCUGCCACAAAGCUUGAGAGCAUCUUAGGAUGCAGAGACGGCAGCCUUCGGUGGCGCCAUAGCGCCAACGUUCUCAACUAUGAUACCCAAAGCGCGUGCUCCGUUGAAUGGAGUUUAUCAUG | ≤ -4.2
GGAUCUUCUCGAUCUAACAAAAAAGACAAAUCUGCCACAAAGCUUGAGGGCAUCUUCGGAUGUAGAGGCGGCAGCCUUCGCUGGCGCGAUAGCGCCAACGUUCGCAACUAUGACACGCAAAACGCGUGCUCCGUUGAAUGGAGUUUAUCAUG | -2.29
GGUUGUUCUCGAUCUAAUAAAAAAGACAAAACUGCCACAAAGCUUGAGAGCAUCUUCGGAUGCAGAGGCGGCAGCUUUCGGUGGCGCGAUAGCUCCAACGUUCUCAACUAUGACACGCAAAACGCGUGCUCCGUUGAAUGGAGUUUAUCAUG | -1.46
GGAUCUACUCGAUCUAACAAAAAAGACAAAUCUGCCACAAAGUUUGAGGGCAUCUUCGGAUGCAGAGGCGGCAGCCUUCGGUGGCGCGAUAGCGCCAACGUUCUCAACUGUGACACGCAAAACGCGUGCUCCGUUGAAUGGAGUUUAUCAUG | ≤ -4.2
GGAUCUUCUCGAUCUAACAAAAACGACAAAUCUGCCACAAAGCUUGGGAGCAUCUUCGGAUGCAGAGGCGGCAGCCUUUGGUGGCGCGAUAGCCCCAACGUUCUCAACUAUGACACGCAAAACGUGUGCUCCGUUGAAUGGAGUUUAUCAUG | ≤ -4.2
GGAUCUUCUCGAUCUAACAAAAAAGACAAAUCUGCCACAAAGCUUGAGAGCAUCUGCGGAUGCAGAGGCGGCAGCCUUCGGUGGCGCGAUAGUGCCAACGUUCUCAACUAUGACACGCAAAACGCGUGCUCCGUUGAAUGGAGUUUAUCAUG | -3.02
GGAUCUUCUCGAUCUAACAAAAAAGACAACUCUGUCACAAAGCUUGAGAGCAUUUUCGGAUGCAGAGGCGGCAGCCUUCGGUGGUGCGAUAGCGCCAACGUUCUCAACUAUGACACGCAAUACGCGUGCUCCGUUGAAUGGAGUUUAUCAUG | ≤ -4.2
GGAUCUUCUCGCUCUAACUAAAAAGACAAAGCUGCCACAACGCUUGAGAGCAUCUUCGGAUGCAGAGGCGGCAGCCUUCGGUGGCGCGAUAGAGCCAACGUUCUCAACUAUGACACGCAAAACGCGUGCUCCGUUGAAUGAAGUUUAUCAUG | -3.98
GGAUCUUCUCGAUCUAACAAAAAAGACAAAUCUGCCACAAAGCUUGACCGCAUCUUCGGAUGUAGAGGCGGCAGCCUUCGGUGGCACGAUAGCGCCAACGUUCUCAACUAUGACACGCAAAACGCGUGCUCCGUUGAAUGGAGUUUAUAAUG | ≤ -4.2
GGAUCUUCUCGAUCUAACAUAACAGACAAAUCUGCCACAAAGCUUGAGAGCAUCUUCGGAUGCAGAGGCGGCAGCCUUUGGUGGCGCGAUAGCCUCAACGUUCUCAACUAUGACACGCAAAACGCGUGCUCCGUUGAAUGGAGUUUAACAUG | ≤ -4.2
GGAUCUUCUCGAUCUAACAAAAAAGACAAAUCUGCCACAAAGCUUGAGGGCAUCUUCGCAUGCAGAAGCAGCAGCCCUCGGCGGCGCGGUAGCGGCAACGUUCUCAACUAUGACACGCAAAACGCGUGCUCCGUUGAAUGGAGUUUAUCAUG | ≤ -4.2
